Assay [1] deals with human c-Src (human, UniProt P12931 2-536). The assay is described as follows: immunoprecipitation and immunoblotting of endogenous proteins in IMR-32 cells.
Assay [2] deals with endogenous c-Src of rat GH3 cells (rat, UniProt Q9WUD9 2-536, limits assumed). The assay is described as follows: immunoprecipitation and immunoblotting of endogenous proteins in GH3 cells.

B1: human CASPR/p190 (receptor)
chain: WGYYGCDEELVGPLYARSLGASSYYSLLTAPRFARLHGISGWSPRIGDPNPWLQIDLMKKHRIRAVATQGSFNSWDWVTRYMLLYGDRVDSWTPFYQRGHNSTFFGNVNESAVVRHDLHFHFTARYIRIVPLAWNPRGKIGLRLGLYGCPYKADILYFDGDDAISYRFPRGVSRSLWDVFAFSFKTEEKDGLLLHAEGAQGDYVTLELEGAHLLLHMSLGSSPIQPRPGHTTVSAGGVLNDQHWHYVRVDRFGRDVNFTLDGYVQRFILNGDFERLNLDTEMFIGGLVGAARKNLAYRHNFRGCIENVIFNRVNIADLAVRRHSRITFEGKVAFRCLDPVPHPINFGGPHNFVQVPGFPRRGRLAVSFRFRTWDLTGLLLFSRLGDGLGHVELTLSEGQVNVSIAQSGRKKLQFAAGYRLNDGFWHEVNFVAQENHAVISIDDVEGAEVRVSYPLLIRTGTSYFFGGCPKPASRWDCHSNQTAFHGCMELLKVDGQLVNLTLVEGRRLGFYAEVLFDTCGITDRCSPNMCEHDGRCYQSWDDFICYCELTGYKGETCHTPLYKESCEAYRLSGKTSGNFTIDPDGSGPLKPFVVYCDIRENRAWTVVRHDRLWTTRVTGSSMERPFLGAIQYWNASWEEVSALANASQHCEQWIEFSCYNSRLLNTAGGYPYSFWIGRNEEQHFYWGGSQPGIQRCACGLDRSCVDPALYCNCDADQPQWRTDKGLLTFVDHLPVTQVVIGDTNRSTSEAQFFLRPLRCYGDRNSWNTISFHTGAALRFPPIRANHSLDVSFYFRTSAPSGVFLENMGGPYCQWRRPYVRVELNTSRDVVFAFDVGNGDENLTVHSDDFEFNDDEWHLVRAEINVKQARLRVDHRPWVLRPMPLQTYIWMEYDQPLYVGSAELKRRPFVGCLRAMRLNGVTLNLEGRANASEGTSPNCTGHCAHPRLPCFHGGRCVERYSYYTCDCDLTAFDGPYCNHDIGGFFEPGTWMRYNLQSALRSAAREFSHMLSRPVPGYEPGYIPGYDTPGYVPGYHGPGYRLPDYPRPGRPVPGYRGPVYNVTGEEVSFSFSTSSAPAVLLYVSSFVRDYMAVLIKDDGTLQLRYQLGTSPYVYQLTTRPVTDGQPHSINITRVYRNLFIQVDYFPLTEQKFSLLVDSQLDSPKALYLGRVMETGVIDPEIQRYNTPGFSGCLSGVRFNNVAPLKTHFRTPRPMTAELAEALRVQGELSESNCGAMPRLVSEVPPELDPWYLPPDFPYYHDEGWVAILLGFLVAFLLLGLVGMLVLFYLQNHRYKGSYHTNEPKAAHEYHPGSKPPLPTSGPAQVPTPTAAPNQAPASAPAPAPTPAPAPGPRDQNLPQILEESRSE
notes: Endogenous in IMR-32 neuroblastoma cells
For the molecule B1, the binding result in assay [1] is given as “no binding”.

B2: rat CASPR/p190 (receptor)
chain: WGYYGCNEELVGPLYARSLGASSYYGLFTTARFARLHGISGWSPRIGDPNPWLQIDLMKKHRIRAVATQGAFNSWDWVTRYMLLYGDRVDSWTPFYQQGHNATFFGNVNDSAVVRHDLHYHFTARYIRIVPLAWNPRGKIGLRLGIYGCPYTSNILYFDGDDAISYRFQRGASQSLWDVFAFSFKTEEKDGLLLHTEGSQGDYVTLELQGAHLLLHMSLGSSPIQPRPGHTTVSAGGVLNDLSWHYVRVDRYGREANLTLDGYVHRFVLNGDFERLNLENEIFIGGLVGAARKNLAYRHNFRGCIENVIYNRINIAEMAVQRHSRITFEGNVAFRCLDPVPHPINFGGPHNFVQVPGFPRRGRLAVSFRFRTWDLTGLLLFSRLGDGLGHVELMLSEGQVNVSIAQTGRKKLQFAAGYRLNDGFWHEVNFVAQENHAVISIDDVEGAEVRVSYPLLIRTGTSYFFGGCPKPASRWGCHSNQTAFHGCMELLKVDGQLVNLTLVEFRKLGYFAEVLFDTCGITDRCSPNMCEHDGRCYQSWDDFICYCELTGYKGVTCHEPLYKESCEAYRLSGKYSGNYTIDPDGSGPLKPFVVYCDIRENRAWTVVRHDRLWTTRVTGSSMDRPFLGAIQYWNASWEEVSALANASQHCEQWIEFSCYNSRLLNTAGGYPYSFWIGRNEEQHFYWGGSQPGIQRCACGLDQSCIDPALHCNCDADQPQWRTDKGLLTFVDHLPVTQVVIGDTNRSSSEAQFFLRPLRCYGDRNSWNTISFRTGAALRFPPIRANHSLDVSFYFRTSAPSGVFLENMGGPFCQWRRPYVRVELNTSRDVVFAFDIGNGDENLTVHSDDFEFNDDEWHLVRAEINVKQARLRVDHRPWVLRPMPLQTYIWLEYDQPLYVGSAELKRRPFVGCLRAMRLNGVTLNLEGRANASEGTFPNCTGHCTHPRFPCFHGGRCVERYSYYTCDCDLTAFDGPYCNHDIGGFFETGTWMRYNLQSALRSAAQEFSHMLSRPVPGYEPGYIPGYDTPGYVPGYHGPGYRLPDYPRPGRPVPGYRGPVYNVTGEEVSFSFSTSSAPAVLLYVSSFVRDYMAVLIKEDGTLQLRYQLGTSPYVYQLTTRPVTDGQPHSVNITRVYRNLFIQVDYFPLTEQKFSLLVDSQLDSPKALYLGRVMETGVIDPEIQRYNTPGFSGCLSGVRFNNVAPLKTHFRTPRPMTAELAEAMRVQGELSESNCGAMPRLVSEVPPELDPWYLPPDFPYYHDDGWIAILLGFLVAFLLLGLVGMLVLFYLQNHRYKGSYHTNEPKATHDSHPGGKAPLPPSGPAQAPAPTPAPTQVPTPAPAPASGPGPRDQNLPQILEESRSE
notes: Endogenous in GH3 cells and rat brain, or expressed from pCM190R in COS7 cells; read from membrane lysates; no cleavage site stated; also called Contactin ASsociated PRotein; 190 kDa protein
For B2, the binding result in assay [2] is reported as “no binding”.

For the origin of these results see patent US20030120051A1 (SUGEN, published 2003).
